Laboratory results from patent US20240272170A1.
Where a chain is given by its changes, count along the chain named. Numbers in names are those of the source.

T1: HA peptide (Octet assay of PS621 variants)
T1 sequence (peptide): HAKLDEESILKQK

B1: PS1111 (designed binder)
chain: MHSKFSHAGRICGAKFKVGEPIYRCKECSFDDTCVLCVNCFNPKDHTGHHVYTTICTEFNNGICDCGDKSAWNHTLFCKAEEG
B2: PS1116 (designed binder)
chain: B1 chain with G48Y, S70E
B3: PS1103 (designed binder)
chain: B1 chain with D32Y, S70E
B4: PS1112 (designed binder)
chain: B1 chain with S70T
B5: PS1101 (designed binder)
chain: B1 chain with G19R, S70E
B6: PS621 (protein)
chain: B1 chain with S70E
B7: PS796 (designed binder)
chain: MPTAASATESAIEDTPAPARPEVDGRTKPKRQPRYHVVLWDDDDHTYQYVVVMLQSLFGHPPERGYRLAKEMDTQGRVIVLTTTREHAELKRDQIHAFGYDRLLARSKGSMKASIEAEE
B8: PS798 (designed binder)
chain: B7 chain with D41N, Q75L
B9: PS829 (designed binder)
chain: B7 chain with P62R, Q75L
B10: PS809 (designed binder)
chain: B7 chain with D41N
B11: PS838 (designed binder)
chain: B7 chain with P62R
B12: PS831 (designed binder)
chain: B7 chain with D41N, P62R, E63K, Q75L
B13: PS828 (designed binder)
chain: B7 chain with P62R, M72V, Q75L
B14: PS847 (designed binder)
chain: B7 chain with Q55R
B15: PS801/PS814 (designed binder)
chain: B7 chain with D41N, E63K, M72V
B16: PS830 (designed binder)
chain: B7 chain with P62R, E63K, Q75L
B17: PS797 (designed binder)
chain: B7 chain with Q75L
B18: PS808 (designed binder)
chain: B7 chain with D41N, Q55R, M72V
B19: PS819 (designed binder)
chain: B7 chain with E63K
B20: PS557 mutant N41D, Q55R, E63A, V72M, Y100R (SNAP display clone) (designed binder, not shown: large carriers; small tags and cut ends)
chain: B7 chain with Q55R, E63A, Y100R
modifications: In the selection the protein carried an N-terminal SNAP tag covalently bound to benzylguanine on its own coding DNA; this is not in the letters.
B21: PS557 mutant N41D, Q55R, H60I, V72M (SNAP display clone) (designed binder, not shown: large carriers; small tags and cut ends)
chain: B7 chain with Q55R, H60I
modifications: In the selection the protein carried an N-terminal SNAP tag covalently bound to benzylguanine on its own coding DNA; this is not in the letters.
B22: PS557 mutant N41D, E63S, L68M, V72M, R106H (SNAP display clone) (designed binder, not shown: large carriers; small tags and cut ends)
chain: B7 chain with E63S, L68M, R106H
modifications: In the selection the protein carried an N-terminal SNAP tag covalently bound to benzylguanine on its own coding DNA; this is not in the letters.
B23: PS557 mutant N41D, Q55R, E63S, L68M, V72M, Y100R (SNAP display clone) (designed binder, not shown: large carriers; small tags and cut ends)
chain: B7 chain with Q55R, E63S, L68M, Y100R
modifications: In the selection the protein carried an N-terminal SNAP tag covalently bound to benzylguanine on its own coding DNA; this is not in the letters.
B24: PS557 mutant N41D, Q55R, E63W, V72M, R106H (SNAP display clone) (designed binder, not shown: large carriers; small tags and cut ends)
chain: B7 chain with Q55R, E63W, R106H
modifications: In the selection the protein carried an N-terminal SNAP tag covalently bound to benzylguanine on its own coding DNA; this is not in the letters.
B25: PS557 mutant N41D, Q55R, P62Y, E63T, V72M, Y100R (SNAP display clone) (designed binder, part only)
chain: B7 chain with Q55R, P62Y, E63T, Y100R
modifications: N-terminal SNAP tag

What follows are binders tested against T1, HA peptide (Octet assay of PS621 variants) (assay: Octet (BLI), 30 C).

Octet response	Binder
0.1	B1
0.1	B2
0.1	B3
0.1	B4
0.1	B5

What follows are binders tested against YRELRLLK after cleavage to N-terminal arginine (RELRLLK) (assay: single-molecule dynamic sequencing on chip).

median interpulse duration (IPD) [s]	Binder
10.1	B6

Each binder was assayed against FA peptide (Octet assay of PS557 variants) (assay: Octet (BLI), peptide on sensor, response after 200 s association).

Octet response [nm]	Binder
1.37	B7
1.41	B8
0.797	B9
0.0032	B10
0.377	B11
0.755	B12
0.583	B13
0.059	B14
0.00662	B15
0.0339	B16
0.202	B17
0.00233	B18

Each binder was assayed against IA peptide (Octet assay of PS557 variants) in the same assay as above.

Octet response [nm]	Binder
11.6	B7
12.7	B8
7.51	B9
8.52	B10
11.2	B11
10.5	B12
5.32	B13
7.77	B14
9.02	B15
6.51	B16
11.6	B17
9.06	B19
9.27	B18

The binders below were run against MA peptide (Octet assay of PS557 variants) in the same assay as above.

Octet response [nm]	Binder
8.42	B7
9.37	B8
4.7	B9
2.23	B10
8.09	B11
4.86	B12
1.7	B13
3.23	B14
1.75	B15
2.16	B16
8.71	B17
3.75	B19
1.88	B18

The binders below were run against WA peptide (Octet assay of PS557 variants) in the same assay as above.

Octet response [nm]	Binder
0.761	B7
0.625	B9
0.0117	B10
0.0581	B11
0.0098	B14
0.0148	B15
0.00243	B18

The binders below were run against YA peptide (Octet assay of PS557 variants) in the same assay as above.

Octet response [nm]	Binder
1.23	B7
0.749	B9
0.0027	B10
0.59	B11
0.0607	B14
0.054	B15
0.0539	B18

These binders were tested against FA peptide (Octet assay of PS557 variants) (assay: Octet (BLI), peptide on sensor, response after 200 s association; second PS829 row).

Octet response [nm]	Binder
1.18	B9

These binders were tested against IA peptide (Octet assay of PS557 variants) in the same assay as above.

Octet response [nm]	Binder
8.85	B9

The binders below were run against MA peptide (Octet assay of PS557 variants) in the same assay as above.

Octet response [nm]	Binder
7.86	B9

What follows are binders tested against N-terminal alanine peptide (SNAP display selection) (assay: SNAP display, 4 rounds of selection on alanine peptide; NGS abundance in round 4 / naive library).

Enrichment	Binder
154	B20
320	B21
124	B22
166	B23
133	B24
158	B25

These binders were tested against YRELRLLK after cleavage to N-terminal arginine (RELRLLK) (assay: on-chip single-molecule dynamic sequencing with PS610, PS961, PS621 and aminopeptidases; median of the RS mean PD distribution; panel YREL).

median RS mean PD [s]	Binder
0.19	B6
